Measurements as given in patent US20170218352.
Like-named read-outs stand apart in the source and are kept apart here.

How the values were obtained:
[1] = test system: N-(3[2-furyl]acryloyl)-Leu-Gly-Pro-Ala
[2] = test system: fluorescently labeled type I collagen (FITC-collagen)
[3] = test system: type I collagen
[4] = test system: type II collagen
[5] = test system: type III collagen
[6] = test system: type IV collagen
[7] = test system: type V collagen
[8] = test system: type VI collagen
[9] = target: T1, N-(3[2-furyl]acryloyl)-Leu-Gly-Pro-Ala
T1 chain: LGPA

[10] = target: fluorescently labeled type I collagen (FITC-collagen); remark: listed apart in the source
[11] = target: type I collagen; remark: listed apart in the source
[12] = target: type II collagen; remark: listed apart in the source
[13] = target: type III collagen; remark: listed apart in the source
[14] = target: type IV collagen; remark: listed apart in the source
[15] = target: type V collagen; remark: listed apart in the source
[16] = target: type VI collagen; remark: listed apart in the source

In the case of “collagenase derived from Clostridium histolyticum (manufactured by Roche Applied Science, trade name "Liberase C/T")”, the Maximum rate [1] is reported as 0.2 mM/s, the Michaelis constant [1] is reported as 2.03 mM and the Molecular activity [1] is reported as 22.2 s⁻¹. It also gave a Specific activity [1] of 2.6 U/mg, a Maximum rate [2] of 0.00016 mM/s and a Michaelis constant [2] of 0.0019 mM. The Molecular activity [2] was 18.7 s⁻¹, the Specific activity [2] was 1770 U/mg and the “disappearance of collagen bands on electrophoresis after incubation” value (“disappearance of collagen bands” below) [3] was “the recombinant 62 kDa collagenase seems to more rapidly digest the type I collagen than liberase”. The “disappearance of collagen bands” value [4] was “This tendency was also similarly observed for the type II, type III, type IV, type V, and type VI collagens”, the “disappearance of collagen bands” value [5] was “This tendency was also similarly observed for the type II, type III, type IV, type V, and type VI collagens” and the “disappearance of collagen bands” value [6] was “the bands do not disappear when the liberase is used”. The “disappearance of collagen bands” value [7] was “the bands do not disappear when the liberase is used” and the “disappearance of collagen bands” value [8] was “the band does not disappear when the liberase is used”.

B1: recombinant 62 kDa collagenase (Grimontia hollisae-derived recombinant collagenase) (protein)
chain: AVEQCDLSQFQTTSSNQLMAAIRQQGASCVNALFSADTGVQEAAFSSNHMYNVAQYTRTLAQQYAGGGSDELEALYLYLRAGYYAEFYNSNITFLSWVTPAVKGAVDAFVQNAHFYDNGDAHGKVLNEVIITMDSAGLQHAYLDVVTQWLTRWNAQYAEHWYMRNAVNGVFTLLFGGQWNNQYTSLIGEQTALVTALQAFALDRTKVNSPTEFMAANAARELGRLARYTDATIAPKVTEGLTAIFGQYPSYGDGDAIWLGAADTASYYADCSQFNICGFEDALRDAALNQTFICSDTIKIRSQDMSQAQHLAACDKMAYEESFFHTTLETGNQPVADDHNTQLQVNIFNSDTDYGKYAGPIFGIDTNNGGMYLEGNPANVGNIPNFIAYEASYANPDHFVWNLEHEYVHYLDGRFNMYGDFGTPTELVVWWSEGVAEYVSRVNDNPQAIATIQDGSTYTLAQVFDTTYDGFDVDRIYRWGYLAVRFMFERHPDEVQRMLSATRQGRWAEYKAIISGWANQYQSEFAQWTEALAKGDSGAGNGEGTGSGNEGGGESGGNT
In the case of B1, the Maximum rate [9] is reported as 0.6 mM/s, the Michaelis constant [9] is reported as 2.28 mM and the Molecular activity [9] is reported as 37.5 s⁻¹. It also gave a Specific activity [9] of 9.39 U/mg, a Maximum rate [10] of 0.00041 mM/s and a Michaelis constant [10] of 0.0011 mM. For the same molecule, the Molecular activity [10] was 25.1 s⁻¹, the Specific activity [10] was 5490 U/mg and the “specific activity (from immediately after the purification to 24 hours)” value [10] was 12,000 (U/mg). The “disappearance of collagen bands” value [11] was “the recombinant 62 kDa collagenase seems to more rapidly digest the type I collagen than liberase”, the “disappearance of collagen bands” value [12] was “This tendency was also similarly observed for the type II, type III, type IV, type V, and type VI collagens” and the “disappearance of collagen bands” value [13] was “This tendency was also similarly observed for the type II, type III, type IV, type V, and type VI collagens”. For the same molecule, the “disappearance of collagen bands” value [14] was “the band become weaker when the recombinant 62 kDa collagenase is used to react for three hours or five hours”, the “disappearance of collagen bands” value [15] was “the band become weaker when the recombinant 62 kDa collagenase is used to react for three hours or five hours” and the “disappearance of collagen bands” value [16] was “the band become weaker when the recombinant 62 kDa collagenase is used to react for 72 hours”.

B2: 74 kDa collagenase (Grimontia hollisae-derived collagenase lacking the prepro region) (protein)
chain: AVEQCDLSQFQTTSSNQLMAAIRQQGASCVNALFSADTGVQEAAFSSNHMYNVAQYTRTLAQQYAGGGSDELEALYLYLRAGYYAEFYNSNITFLSWVTPAVKGAVDAFVQNAHFYDNGDAHGKVLNEVIITMDSAGLQHAYLDVVTQWLTRWNAQYAEHWYMRNAVNGVFTLLFGGQWNNQYTSLIGEQTALVTALQAFALDRTKVNSPTEFMAANAARELGRLARYTDATIAPKVTEGLTAIFGQYPSYGDGDAIWLGAADTASYYADCSQFNICGFEDALRDAALNQTFICSDTIKIRSQDMSQAQHLAACDKMAYEESFFHTTLETGNQPVADDHNTQLQVNIFNSDTDYGKYAGPIFGIDTNNGGMYLEGNPANVGNIPNFIAYEASYANPDHFVWNLEHEYVHYLDGRFNMYGDFGTPTELVVWWSEGVAEYVSRVNDNPQAIATIQDGSTYTLAQVFDTTYDGFDVDRIYRWGYLAVRFMFERHPDEVQRMLSATRQGRWAEYKAIISGWANQYQSEFAQWTEALAKGDSGAGNGEGTGSGNEGGGESGGNTGLPENCAVLPKISDGRLALDEAACLADTASASDVLWFSIPAVSEYQTIAITAGNGTGDLTLEYSNLNWPDGTNVQASSANMGNSECIILEHQANYWGYLKVSGSFENAALLVEAGSNQCRQ
B2 was tested, and the “specific activity (24 hours after the purification)” value [10] was 11,500 (U/mg) and the “specific activity (immediately after the purification)” value [10] was 18,000 (U/mg).

B3: recombinant 60 kDa collagenase (Grimontia hollisae-derived recombinant collagenase) (protein)
chain: AVEQCDLSQFQTTSSNQLMAAIRQQGASCVNALFSADTGVQEAAFSSNHMYNVAQYTRTLAQQYAGGGSDELEALYLYLRAGYYAEFYNSNITFLSWVTPAVKGAVDAFVQNAHFYDNGDAHGKVLNEVIITMDSAGLQHAYLDVVTQWLTRWNAQYAEHWYMRNAVNGVFTLLFGGQWNNQYTSLIGEQTALVTALQAFALDRTKVNSPTEFMAANAARELGRLARYTDATIAPKVTEGLTAIFGQYPSYGDGDAIWLGAADTASYYADCSQFNICGFEDALRDAALNQTFICSDTIKIRSQDMSQAQHLAACDKMAYEESFFHTTLETGNQPVADDHNTQLQVNIFNSDTDYGKYAGPIFGIDTNNGGMYLEGNPANVGNIPNFIAYEASYANPDHFVWNLEHEYVHYLDGRFNMYGDFGTPTELVVWWSEGVAEYVSRVNDNPQAIATIQDGSTYTLAQVFDTTYDGFDVDRIYRWGYLAVRFMFERHPDEVQRMLSATRQGRWAEYKAIISGWANQYQSEFAQWTEALAKGDS
For B3, the “specific activity (from immediately after the purification to 24 hours)” value [10] was 12,000 (U/mg).
